Laboratory results published in publication PMC3746069 (FEBS letters, 2013).
Blank lines part the entries; values can stand above or below the binder they belong to.

B2: Outer arm dynein intermediate chain 2 with C-terminal 6xHis (IC2-6xHis) (natural protein, Chlamydomonas reinhardtii, UniProt P27766 1-567, looked up)
chain: MEIYHQYIKLRKQFGRFPKFGDEGSEMLADIRPNEDHGKEYIPRNPVTTVTQCVPEMSEHEANTNAVILVNKAMSHVEGGWPKDVDYTEAEHTIRYRKKVEKDEDYIRTVVQLGSSVEDLIKQNNAVDIYQEYFTNVTMDHTSEAPHVKTVTVFKDPNNIKRSASYVNWHPDGSVPKVVVAYSILQFQQQPAGMPLSSYIWDVNNPNTPEYEMVPTSQICCAKFNLKDNNLVGAGQYNGQLAYFDVRKGNGPVEATPIDISHRDPIYDFAWLQSKTGTECMTVSTDGNVLWWDLRKMNECVENMPLKEKNSETTVGGVCLEYDTNAGPTNFMVGTEQGQIFSCNRKAKNPVDRVKYVLSGHHGPIYGLRRNPFNSKYFLSIGDWTARVWVEDTAVKTPILTTKYHPTYLTGGTWSPSRPGVFFTIKMDGAMDVWDLYYKHNEPTLTVQVSDLALTAFAVQESGGTVAVGTSDGCTSVLQLSTGLSEASPAEKANINAMFERETTREKNLEKAIKEAKVKARKEQGRRDEVKDNVTEEQLKALEDEFFKTTDPAVGGGYGAGEGAAAE

Tests used:
[1] = molecular target: T1, Outer dynein arm docking complex subunit DC2 with C-terminal 6xHis (DC2-6xHis) (Chlamydomonas reinhardtii, UniProt A8JF70 1-552); test: pull-down
T1 sequence (looked up): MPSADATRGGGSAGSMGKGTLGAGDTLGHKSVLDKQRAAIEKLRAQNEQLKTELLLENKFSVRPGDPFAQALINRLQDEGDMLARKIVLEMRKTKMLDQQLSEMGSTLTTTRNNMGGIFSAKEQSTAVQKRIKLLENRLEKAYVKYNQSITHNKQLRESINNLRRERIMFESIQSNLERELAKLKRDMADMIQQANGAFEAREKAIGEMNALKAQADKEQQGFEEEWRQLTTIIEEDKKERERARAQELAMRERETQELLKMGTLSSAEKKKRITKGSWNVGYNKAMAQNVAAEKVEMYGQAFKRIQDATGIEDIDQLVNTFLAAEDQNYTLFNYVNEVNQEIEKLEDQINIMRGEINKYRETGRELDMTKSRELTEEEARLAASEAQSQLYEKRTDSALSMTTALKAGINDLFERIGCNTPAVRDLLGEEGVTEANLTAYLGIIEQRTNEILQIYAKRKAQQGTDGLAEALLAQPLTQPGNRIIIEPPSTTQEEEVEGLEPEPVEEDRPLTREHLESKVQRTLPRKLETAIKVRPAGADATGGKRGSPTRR

[2] = molecular target: T2, Outer arm dynein intermediate chain 1 with N-terminal 6xHis (His-IC1) (Chlamydomonas reinhardtii, UniProt Q39578 1-683); test: co-IP
T2 sequence (looked up): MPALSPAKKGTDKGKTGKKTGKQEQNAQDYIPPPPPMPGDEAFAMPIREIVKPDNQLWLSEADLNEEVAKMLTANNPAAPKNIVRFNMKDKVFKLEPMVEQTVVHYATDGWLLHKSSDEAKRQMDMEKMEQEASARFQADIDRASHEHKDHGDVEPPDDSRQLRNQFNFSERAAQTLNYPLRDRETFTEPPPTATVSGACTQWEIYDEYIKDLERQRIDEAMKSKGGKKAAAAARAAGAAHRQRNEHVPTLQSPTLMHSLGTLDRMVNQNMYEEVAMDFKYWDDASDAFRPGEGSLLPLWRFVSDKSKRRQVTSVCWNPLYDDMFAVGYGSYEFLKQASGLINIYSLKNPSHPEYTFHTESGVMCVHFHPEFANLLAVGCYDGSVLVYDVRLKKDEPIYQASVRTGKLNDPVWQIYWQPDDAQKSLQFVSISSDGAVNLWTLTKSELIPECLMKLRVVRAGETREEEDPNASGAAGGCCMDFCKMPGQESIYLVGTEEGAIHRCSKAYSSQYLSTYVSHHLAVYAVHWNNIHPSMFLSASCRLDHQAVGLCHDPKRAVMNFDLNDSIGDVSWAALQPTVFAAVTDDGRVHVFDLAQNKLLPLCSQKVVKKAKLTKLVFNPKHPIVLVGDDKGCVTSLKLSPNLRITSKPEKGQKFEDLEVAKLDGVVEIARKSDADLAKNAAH

[3] = molecular target: B2; test: pull-down

- stoichiometry N [1]: 1 DC1:DC2
B1: Outer dynein arm docking complex subunit DC1, not tagged (natural protein)
chain: not shown

Binder: B2
- binding result [2]: binds

- stoichiometry N [3]: 1 IC1:IC2
B3: Outer arm dynein intermediate chain 1 (IC1), not tagged (natural protein, Chlamydomonas reinhardtii, UniProt Q39578 1-683, looked up)
chain: MPALSPAKKGTDKGKTGKKTGKQEQNAQDYIPPPPPMPGDEAFAMPIREIVKPDNQLWLSEADLNEEVAKMLTANNPAAPKNIVRFNMKDKVFKLEPMVEQTVVHYATDGWLLHKSSDEAKRQMDMEKMEQEASARFQADIDRASHEHKDHGDVEPPDDSRQLRNQFNFSERAAQTLNYPLRDRETFTEPPPTATVSGACTQWEIYDEYIKDLERQRIDEAMKSKGGKKAAAAARAAGAAHRQRNEHVPTLQSPTLMHSLGTLDRMVNQNMYEEVAMDFKYWDDASDAFRPGEGSLLPLWRFVSDKSKRRQVTSVCWNPLYDDMFAVGYGSYEFLKQASGLINIYSLKNPSHPEYTFHTESGVMCVHFHPEFANLLAVGCYDGSVLVYDVRLKKDEPIYQASVRTGKLNDPVWQIYWQPDDAQKSLQFVSISSDGAVNLWTLTKSELIPECLMKLRVVRAGETREEEDPNASGAAGGCCMDFCKMPGQESIYLVGTEEGAIHRCSKAYSSQYLSTYVSHHLAVYAVHWNNIHPSMFLSASCRLDHQAVGLCHDPKRAVMNFDLNDSIGDVSWAALQPTVFAAVTDDGRVHVFDLAQNKLLPLCSQKVVKKAKLTKLVFNPKHPIVLVGDDKGCVTSLKLSPNLRITSKPEKGQKFEDLEVAKLDGVVEIARKSDADLAKNAAH
